What was measured:
FcεRIα (human) [1] = biological target: FcεRIα (human) (UniProt P12319); assay: SPR; insect derived
FcεRIα (human) [2] = biological target: FcεRIα (human) (UniProt P12319); assay: SPR; mammalian derived

IgE-Fc3-4, sequence (P01854 209-426): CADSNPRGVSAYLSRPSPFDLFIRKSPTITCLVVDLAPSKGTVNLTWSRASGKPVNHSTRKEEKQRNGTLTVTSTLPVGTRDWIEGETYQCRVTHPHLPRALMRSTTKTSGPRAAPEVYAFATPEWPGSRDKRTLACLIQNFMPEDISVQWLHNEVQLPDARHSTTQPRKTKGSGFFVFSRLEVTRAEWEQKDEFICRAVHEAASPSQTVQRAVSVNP
FcεRIα (human), sequence (P12319 26-201): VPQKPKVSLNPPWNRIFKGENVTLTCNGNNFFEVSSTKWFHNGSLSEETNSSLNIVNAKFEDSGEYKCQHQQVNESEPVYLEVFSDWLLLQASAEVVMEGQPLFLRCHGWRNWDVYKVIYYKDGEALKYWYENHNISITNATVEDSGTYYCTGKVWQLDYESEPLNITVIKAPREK

Kd (FcεRIα (human) [1]): 0.66 nM
Kd (FcεRIα (human) [2]): 0.933 nM
Substance: IgE-Fc3-4 (from UniProt P01854 209-426)

Reference: patent US20180273626A1
